Assay: Solubility of the hydrophobic protein and its fragments
Format: physicochemical

B1: R16 protein: synthetic combination protein formed from silk proteins and resilins, polypeptide sequence SEQ ID NO: 4 (protein)
chain: MASMTGGQQMGRGSMGPGSSAAAAAAAASGPGQGQGQGQGQGGRPSDTYGPGSSAAAAAAAASGPGQGQGQGQGQGGRPSDTYGPGSSAAAAAAAASGPGQGQGQGQGQGGRPSDTYGPGSSAAAAAAAASGPGQGQGQGQGQGGRPSDTYGPGSSAAAAAAAASGPGQGQGQGQGQGGRPSDTYGPGSSAAAAAAAASGPGQGQGQGQGQGGRPSDTYGPGSSAAAAAAAASGPGQGQGQGQGQGGRPSDTYGPGSSAAAAAAAASGPGQGQGQGQGQGGRPSDTYGPGSSAAAAAAAASGPGQGQGQGQGQGGRPSDTYGPGSSAAAAAAAASGPGQGQGQGQGQGGRPSDTYGPGSSAAAAAAAASGPGQGQGQGQGQGGRPSDTYGPGSSAAAAAAAASGPGQGQGQGQGQGGRPSDTYGPGSSAAAAAAAASGPGQGQGQGQGQGGRPSDTYGPGSSAAAAAAAASGPGQGQGQGQGQGGRPSDTYGPGSSAAAAAAAASGPGQGQGQGQGQGGRPSDTYGPGSSAAAAAAAASGPGQGQGQGQGQGGRPSDTYG
  solubility in water: about 1%

Reference: patent US20140194025A1, “Production of Highly Concentrated Solutions of Self-Assembling Proteins” (Freudenberg Forschungsdienste KG, priority 2010, published 2014)
